Measured values taken from the supplement of paper PMC11316812.
± gives the standard deviation of the averaged measurements.

Tests used:
[1] = tested on: MCF7; assay: percentage of EdU-negative (G0-arrested) nuclei per well, 72 h; higher = more G0 arrest; details: reference: sequence is the full UniProt precursor, the tested protein was the secreted form or ectodomain
[2] = tested on: hTERT-HMEC; assay: as above; details: reference: sequence is the full UniProt precursor, the tested protein was the secreted form or ectodomain
[3] = protein concentration 0.01125 µM
[4] = protein concentration 0.1125 µM
[5] = protein concentration 0.0225 µM
[6] = protein concentration 0.0254286 µM
[7] = protein concentration 0.254286 µM
[8] = protein concentration 0.0145714 µM
[9] = protein concentration 0.145714 µM
[10] = protein concentration 0.03125 µM
[11] = protein concentration 0.3125 µM
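Note: secreted proteins added to cultured cells, EdU pulse at the end, nuclei found by Hoechst imaging, EdU status from nuclear versus surrounding ring intensity ratio, PBS as neutral control.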

Chain of Q8IWL1 (chain, as listed by the source): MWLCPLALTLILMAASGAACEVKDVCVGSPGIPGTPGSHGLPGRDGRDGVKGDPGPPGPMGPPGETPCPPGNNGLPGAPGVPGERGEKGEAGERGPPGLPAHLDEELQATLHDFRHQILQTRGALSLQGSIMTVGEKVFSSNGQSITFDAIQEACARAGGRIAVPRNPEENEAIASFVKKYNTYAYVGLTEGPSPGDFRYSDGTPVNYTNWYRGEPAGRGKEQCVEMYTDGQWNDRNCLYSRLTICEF

Q: Which “percentage of EdU-negative” value [1, 3] does the source give for “MIFLTALPLFWIMISASRGGHWGAWMPSSISAFEGTCVSIPCRFDFPDELRPAVVHGVWYFNSPYPKNYPPVVFKSRTQVVHESFQGRSRLLGDLGLRNCTLLLSNVSPELGGKYYFRGDLGGYNQYTFSEHSVLDIVNTPNIVVPPEVVAGTEVEVSCMVPDNCPELRPELSWLGHEGLGEPAVLGRLREDEGTWVQVSLLHFVPTREANGHRLGCQASFPNTTLQFEGYASMDVKYPPVIVEMNSSVEAIEGSHVSLLCGADSNPPPLLTWMRDGTVLREAVAESLLLELEEVTPAEDGVYACLAENAYGQDNRTVGLSVMYAPWKPTVNGTMVAVEGETVSILCSTQSNPDPILTIFKEKQILSTVIYESELQLELPAVSPEDDGEYWCVAENQYGQRATAFNLSVEFAPVLLLESHCAAARDTVQCLCVVKSNPEPSVAFELPSRNVTVNESEREFVYSERSGLVLTSILTLRGQAQAPPRVICTARNLYGAKSLELPFQGAHRLMWAKIGPVGAVVAFAILIAIVCYITQTRRKKNVTESPSFSAGDNPPVLFSSDFRISGAPEKYESERRLGSERRLLGLRGEPPELDLSYSHSDLGKRPTKDSYTLTEELAEYAEIRVK” here?
A: 28.5 ± 0.33%

Q: And the “percentage of EdU-negative” value [1, 4]?
A: 28.73 ± 0.11%

Q: What about the “percentage of EdU-negative” value [2, 3] of the same substance?
A: 5.66 ± 0.36%

Q: What about the “percentage of EdU-negative” value [2, 4] of the same substance?
A: 6.55 ± 0.84%

Q: What does the source list for “MWSLLLCGLSIALPLSVTADGCKDIFMKNEILSASQPFAFNCTFPPITSGEVSVTWYKNSSKIPVSKIIQSRIHQDETWILFLPMEWGDSGVYQCVIKGRDSCHRIHVNLTVFEKHWCDTSIGGLPNLSDEYKQILHLGKDDSLTCHLHFPKSCVLGPIKWYKDCNEIKGERFTVLETRLLVSNVSAEDRGNYACQAILTHSGKQYEVLNGITVSITERAGYGGSVPKIIYPKNHSIEVQLGTTLIVDCNVTDTKDNTNLRCWRVNNTLVDDYYDESKRIREGVETHVSFREHNLYTVNITFLEVKMEDYGLPFMCHAGVSTAYIILQLPAPDFRAYLIGGLIALVAVAVSVVYIYNIFKIDIVLWYRSAFHSTETIVDGKLYDAYVLYPKPHKESQRHAVDALVLNILPEVLERQCGYKLFIFGRDEFPGQAVANVIDENVKLCRRLIVIVVPESLGFGLLKNLSEEQIAVYSALIQDGMKVILIELEKIEDYTVMPESIQYIKQKHGAIRWHGDFTEQSQCMKTKFWKTVRYHMPPRRCRPFPPVQLLQHTPCYRTAGPELGSRRKKCTLTTG [Q9HB29]”?
A: percentage of EdU-negative [1, 5]: 24.7 ± 2.6%; percentage of EdU-negative ([1]; protein concentration 0.225 µM): 24 ± 0.89%; percentage of EdU-negative [2, 5]: 5.48 ± 0.32%; percentage of EdU-negative ([2]; protein concentration 0.225 µM): 6.16 ± 0.14%

Q: Which “percentage of EdU-negative” value [1, 6] does the source give for “MGLTLLLLLLLGLEGQGIVGSLPEVLQAPVGSSILVQCHYRLQDVKAQKVWCRFLPEGCQPLVSSAVDRRAPAGRRTFLTDLGGGLLQVEMVTLQEEDAGEYGCMVDGARGPQILHRVSLNILPPEEEEETHKIGSLAENAFSDPAGSANPLEPSQDEKSIPLIWGAVLLVGLLVAAVVLFAVMAKRKQGNRLGVCGRFLSSRVSGMNPSSVVHHVSDSGPAAELPLDVPHIRLDSPPSFDNTTYTSLPLDSPSGKPSLPAPSSLPPLPPKVLVCSKPVTYATVIFPGGNKGGGTSCGPAQNPPNNQTPSS [Q86YW5]” here?
A: 20.7 ± 3.4%

Q: And the “percentage of EdU-negative” value [1, 7]?
A: 26 ± 4.5%

Q: What about the “percentage of EdU-negative” value [2, 6] of the same substance?
A: 5.07 ± 0.49%

Q: And the “percentage of EdU-negative” value [2, 7]?
A: 5.75 ± 0.65%

Q: For Q8IWL1, which “percentage of EdU-negative” value [1, 5] is on record?
A: 28.1 ± 0.35%

Q: What about the “percentage of EdU-negative” value ([1]; protein concentration 0.225 µM) of the same substance?
A: 26.4 ± 0.85%

Q: And the “percentage of EdU-negative” value [2, 5]?
A: 5.29 ± 1.1%

Q: And the “percentage of EdU-negative” value ([2]; protein concentration 0.225 µM)?
A: 6.43 ± 1.3%

Q: Which results are given for “MNPTLGLAIFLAVLLTVKGLLKPSFSPRNYKALSEVQGWKQRMAAKELARQNMDLGFKLLKKLAFYNPGRNIFLSPLSISTAFSMLCLGAQDSTLDEIKQGFNFRKMPEKDLHEGFHYIIHELTQKTQDLKLSIGNTLFIDQRLQPQRKFLEDAKNFYSAETILTNFQNLEMAQKQINDFISQKTHGKINNLIENIDPGTVMLLANYIFFRARWKHEFDPNVTKEEDFFLEKNSSVKVPMMFRSGIYQVGYDDKLSCTILEIPYQKNITAIFILPDEGKLKHLEKGLQVDTFSRWKTLLSRRVVDVSVPRLHMTGTFDLKKTLSYIGVSKIFEEHGDLTKIAPHRSLKVGEAVHKAELKMDERGTEGAAGTGAQTLPMETPLVVKIDKPYLLLIYSEKIPSVLFLGKIVNPIGK [Q8IW75]”?
A: percentage of EdU-negative [1, 8]: 26.6 ± 0.27%; percentage of EdU-negative [1, 9]: 29.1 ± 1.5%; percentage of EdU-negative [2, 8]: 6.15 ± 0.62%; percentage of EdU-negative [2, 9]: 15.6 ± 0.67%

Q: What does the source list for “MGCWGQLLVWFGAAGAILCSSPGSQETFLRSSPLPLASPSPRDPKVSAPPSILEPASPLNSPGTEGSWLFSTCGASGRHGPTQTQCDGAYAGTSVVVTVGAAGQLRGVQLWRVPGPGQYLISAYGAAGGKGAKNHLSRAHGVFVSAIFSLGLGESLYILVGQQGEDACPGGSPESQLVCLGESRAVEEHAAMDGSEGVPGSRRWAGGGGGGGGATYVFRVRAGELEPLLVAAGGGGRAYLRPRDRGRTQASPEKLENRSEAPGSGGRGGAAGGGGGWTSRAPSPQAGRSLQEGAEGGQGCSEAWATLGWAAAGGFGGGGGACTAGGGGGGYRGGDASETDNLWADGEDGVSFIHPSSELFLQPLAVTENHGEVEIRRHLNCSHCPLRDCQWQAELQLAECLCPEGMELAVDNVTCMDLHKPPGPLVLMVAVVATSTLSLLMVCGVLILVKQKKWQGLQEMRLPSPELELSKLRTSAIRTAPNPYYCQVGLGPAQSWPLPPGVTEVSPANVTLLRALGHGAFGEVYEGLVIGLPGDSSPLQVAIKTLPELCSPQDELDFLMEALIISKFRHQNIVRCVGLSLRATPRLILLELMSGGDMKSFLRHSRPHLGQPSPLVMRDLLQLAQDIAQGCHYLEENHFIHRDIAARNCLLSCAGPSRVAKIGDFGMARDIYRASYYRRGDRALLPVKWMPPEAFLEGIFTSKTDSWSFGVLLWEIFSLGYMPYPGRTNQEVLDFVVGGGRMDPPRGCPGPVYRIMTQCWQHEPELRPSFASILERLQYCTQDPDVLNSLLPMELGPTPEEEGTSGLGNRSLECLRPPQPQELSPEKLKSWGGSPLGPWLSSGLKPLKSRGLQPQNLWNPTYRS”?
A: percentage of EdU-negative [1, 5]: 26.78 ± 0.18%; percentage of EdU-negative ([1]; protein concentration 0.225 µM): 28.3 ± 2.3%; percentage of EdU-negative [2, 5]: 5.75 ± 1.3%; percentage of EdU-negative ([2]; protein concentration 0.225 µM): 10.5 ± 0.56%

Q: What does the source list for “MGIQGGSVLFGLLLVLAVFCHSGHSLQCYNCPNPTADCKTAVNCSSDFDACLITKAGLQVYNKCWKFEHCNFNDVTTRLRENELTYYCCKKDLCNFNEQLENGGTSLSEKTVLLLVTPFLAAAWSLHP”?
A: percentage of EdU-negative [1, 5]: 28.2 ± 1.9%; percentage of EdU-negative ([1]; protein concentration 0.225 µM): 25.8 ± 1%; percentage of EdU-negative [2, 5]: 5.4 ± 0.53%; percentage of EdU-negative ([2]; protein concentration 0.225 µM): 5.24 ± 1.1%

Q: What does the source list for “MKALIAALLLITLQYSCAVSPTDCSAVEPEAEKALDLINKRRRDGYLFQLLRIADAHLDRVENTTVYYLVLDVQESDCSVLSRKYWNDCEPPDSRRPSEIVIGQCKVIATRHSHESQDLRVIDFNCTTSSVSSALANTKDSPVLIDFFEDTERYRKQANKALEKYKEENDDFASFRVDRIERVARVRGGEGTGYFVDFSVRNCPRHHFPRHPNVFGFCRADLFYDVEALDLESPKNLVINCEVFDPQEHENINGVPPHLGHPFHWGGHERSSTTKPPFKPHGSRDHHHPHKPHEHGPPPPPDERDHSHGPPLPQGPPPLLPMSCSSCQHATFGTNGAQRHSHNNNSSDLHPHKHHSHEQHPHGHHPHAHHPHEHDTHRQHPHGHHPHGHHPHGHHPHGHHPHGHHPHCHDFQDYGPCDPPPHNQGHCCHGHGPPPGHLRRRGPGKGPRPFHCRQIGSVYRLPPLRKGEVLPLPEANFPSFPLPHHKHPLKPDNQPFPQSVSESCPGKFKSGFPQVSMFFTHTFPK”?
A: percentage of EdU-negative [1, 10]: 26 ± 1.3%; percentage of EdU-negative [1, 11]: 25.5 ± 0.58%; percentage of EdU-negative [2, 10]: 4.57 ± 0.34%; percentage of EdU-negative [2, 11]: 4.52 ± 0.3%

Q: How did the “percentage of EdU-negative” value [1, 5] turn out when “MPGGPGVLQALPATIFLLFLLSAVYLGPGCQALWMHKVPASLMVSLGEDAHFQCPHNSSNNANVTWWRVLHGNYTWPPEFLGPGEDPNGTLIIQNVNKSHGGIYVCRVQEGNESYQQSCGTYLRVRQPPPRPFLDMGEGTKNRIITAEGIILLFCAVVPGTLLLFRKRWQNEKLGLDAGDEYEDENLYEGLNLDDCSMYEDISRGLQGTYQDVGSLNIGDVQLEKP” was run?
A: 25.3 ± 0.85%

Q: What about the “percentage of EdU-negative” value ([1]; protein concentration 0.225 µM) of the same substance?
A: 27 ± 1.2%

Q: What about the “percentage of EdU-negative” value [2, 5] of the same substance?
A: 5.39 ± 0.06%

Q: What about the “percentage of EdU-negative” value ([2]; protein concentration 0.225 µM) of the same substance?
A: 5.986 ± 0.025%

Q: With “MVWKWMPLLLLLVCVATMCSAQDRTDLLNVCMDAKHHKTKPGPEDKLHDQCSPWKKNACCTASTSQELHKDTSRLYNFNWDHCGKMEPACKRHFIQDTCLYECSPNLGPWIQQVNQSWRKERFLDVPLCKEDCQRWWEDCHTSHTCKSNWHRGWDWTSGVNKCPAGALCRTFESYFPTPAALCEGLWSHSYKVSNYSRGSGRCIQMWFDSAQGNPNEEVARFYAAAMHVNAGEMLHGTGGLLLSLALMLQLWLLG” as the substance, how does the “percentage of EdU-negative” value [1, 5] read?
A: 28.59 ± 0.11%

Q: What about the “percentage of EdU-negative” value ([1]; protein concentration 0.225 µM) of the same substance?
A: 27.6 ± 2.5%

Q: And the “percentage of EdU-negative” value [2, 5]?
A: 4.38 ± 0.49%

Q: And the “percentage of EdU-negative” value ([2]; protein concentration 0.225 µM)?
A: 5.92 ± 0.29%
